Reference: US20150344570A1 (published 2015)
Numbering of substitutions follows the chain as printed.

T1: FcgRIIb (human, UniProt P31994 43-217)
T1 construct: extracellular domain; also called FcγRIIb; 2b; not shown: His tag at the C terminus
T1 sequence (looked up): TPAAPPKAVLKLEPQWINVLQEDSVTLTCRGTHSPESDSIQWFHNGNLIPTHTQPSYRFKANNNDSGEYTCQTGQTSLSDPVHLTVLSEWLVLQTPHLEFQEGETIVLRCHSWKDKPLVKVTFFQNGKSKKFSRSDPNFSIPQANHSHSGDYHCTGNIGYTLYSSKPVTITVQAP

T2: FcgRIIaR (human, UniProt P12318 34-217)
T2 construct: extracellular domain; also called FcγRIIa R; FcγRIIa type R; not shown: His tag at the C terminus
T2 sequence (looked up): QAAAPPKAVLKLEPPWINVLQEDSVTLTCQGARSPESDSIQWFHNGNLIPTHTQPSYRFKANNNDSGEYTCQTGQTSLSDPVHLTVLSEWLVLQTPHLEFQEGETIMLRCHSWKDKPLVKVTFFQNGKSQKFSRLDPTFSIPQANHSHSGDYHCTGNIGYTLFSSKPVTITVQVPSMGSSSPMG

T3: FcgRIIaH (human, UniProt P12318 34-217)
T3 construct: extracellular domain; also called FcγRIIa H; FcγRIIa type H; not shown: His tag at the C terminus
T3 sequence (looked up): T2 sequence (looked up) with R134H

T4: FcγRIIa R extracellular domain with C-terminal His tag (human, UniProt P12318 34-217)
T4 construct: extracellular domain; Soluble receptor, R131 allotype; also called FcgRIIa R; FcgRIIaR; not shown: His tag at the C terminus
T4 sequence (looked up): T2 sequence (looked up)

T5: FcγRIIa H extracellular domain with C-terminal His tag (human, UniProt P12318 34-217)
T5 construct: extracellular domain; Soluble receptor, H131 allotype; also called FcgRIIa H; FcgRIIaH; not shown: His tag at the C terminus
T5 sequence (looked up): T2 sequence (looked up) with R134H

B1: H240-Kn125/H240-Hl076/L73-k0 (antibody, human IgG1, kappa)
heavy 1: QDQLVQSGAEVKKPGASVKVSCKASGFNIKDTYIQWVRQAPGQGLEWMGRIDPLRKQTKYREKFEGRVTITADTSTNTAYMELSSLRSEDTAVYYCVRSGREFDYWGQGTLVTVSSASTKGPSVFPLAPSSKSTSGGTAALGCLVKDYFPEPVTVSWNSGALTSGVHTFPAVLQSSGLYSLSSVVTVPSSSLGTQTYICNVNHKPSNTKVDKKVEPKSCDKTHTCPPCPAPEYQWGPMVFLFPPKPKDTLMISRTPEVTCVVVDVSDEEPEVKFNWYVDGVEVHNAKTKPREEQYNATYRVVSVLTVLHQDWLNGKEYKCKVSNKALPAPIEKTISKAKGQPREPQVCTLPPSRDELTKNQVSLWCLVKGFYPSDIAVEWESNGQPENNYKTTPPVLDSDGSFFLYSKLTVDKSRWQQGNVFSCSVMHEALHNHYTQKSLSLSP
heavy 2: QDQLVQSGAEVKKPGASVKVSCKASGFNIKDTYIQWVRQAPGQGLEWMGRIDPLRKQTKYREKFEGRVTITADTSTNTAYMELSSLRSEDTAVYYCVRSGREFDYWGQGTLVTVSSASTKGPSVFPLAPSSKSTSGGTAALGCLVKDYFPEPVTVSWNSGALTSGVHTFPAVLQSSGLYSLSSVVTVPSSSLGTQTYICNVNHKPSNTKVDKKVEPKSCDKTHTCPPCPAPELLGGPSVFLFPPKPKDTLMISRTPEVTCVVVDVSHEEPEVKFNWYVDGVEVHNAKTKPREEQYNSTYRVVSVLTVLHQDWLNGKEYKCKVSNDALPMPIEETISKAKGQPREPQVYTLPPSRCELTKNQVSLSCAVKGFYPSDIAVEWESNGQPENNYKTTPPVLDSDGSFFLVSKLTVDKSRWQQGNVFSCSVMHEALHNHYTQKSLSLSP
light: DIQMTQSPSSLSASVGDRVTITCRASQDIHKYIAWYQQKPGQAPRLLIQYTSTLQPGVPSRFSGSGSGTDYTFTISSLQPEDIATYYCLQYEQLRTFGGGTKVEIKRTVAAPSVFIFPPSDEQLKSGTASVVCLLNNFYPREAKVQWKVDNALQSGNSQESVTEQDSKDSTYSLSSTLTLSKADYEKHKVYACEVTHQGLSSPVTKSFNRGEC
notes: Template of the position 330 series
B2: H240-Kn125/H240-Hl214/L73-k0 (antibody, human IgG1, kappa)
heavy 1: B1 heavy 1
heavy 2: B1 heavy 2 with M329F
light: B1 light
B3: H240-Kn125/H240-Hl216/L73-k0 (antibody, human IgG1, kappa)
heavy 1: B1 heavy 1
heavy 2: B1 heavy 2 with M329I
light: B1 light
B4: H240-Kn125/H240-Hl210/L73-k0 (antibody, human IgG1, kappa)
heavy 1: B1 heavy 1
heavy 2: B1 heavy 2 with M329A
light: B1 light
B5: GpH7-Kn056/GpH7-Hl055/GpL16-k0 (antibody, human IgG1, kappa)
heavy 1: QVQLVQSGAEVKKPGASVTVSCKASGYTFTDYEMHWIRQPPGEGLEWIGAIDPKTGDTAYSESFQDRVTLTADKSTSTAYMELSSLTSEDTAVYYCTRFYSYTYWGQGTLVTVSSASTKGPSVFPLAPSSKSTSGGTAALGCLVKDYFPEPVTVSWNSGALTSGVHTFPAVLQSSGLYSLSSVVTVPSSSLGTQTYICNVNHKPSNTKVDKKVEPKSCDKTHTCPPCPAPEYYAGPSVFLFPPKPKDTLMISRTPEVTCVVVDVSDEDPEVKFNWYVDGVEVHNAKTKPREELYNATYRVVSVLTVLHQDWLNGKEYKCKVSNKALPAPIEKTISKAKGQPREPQVCTLPPSRDELTKNQVSLWCLVKGFYPSDIAVEWESNGQPENNYKTTPPVLDSDGSFFLYSKLTVDKSRWQQGNVFSCSVMHEALHNHYTQKSLSLSP
heavy 2: QVQLVQSGAEVKKPGASVTVSCKASGYTFTDYEMHWIRQPPGEGLEWIGAIDPKTGDTAYSESFQDRVTLTADKSTSTAYMELSSLTSEDTAVYYCTRFYSYTYWGQGTLVTVSSASTKGPSVFPLAPSSKSTSGGTAALGCLVKDYFPEPVTVSWNSGALTSGVHTFPAVLQSSGLYSLSSVVTVPSSSLGTQTYICNVNHKPSNTKVDKKVEPKSCDKTHTCPPCPAPELLAGPDVFLFPPKPKDTLMISRTPEVTCVVVDVSHEDPEVKFNWYVDGVEVHNAKTKPREELYNSTYRVVSVLTVLHQDWLNGKEYKCKVSNKALPMPEEKTISKAKGQPREPQVYTLPPSRCELTKNQVSLSCAVKGFYPSDIAVEWESNGQPENNYKTTPPVLDSDGSFFLVSKLTVDKSRWQQGNVFSCSVMHEALHNHYTQKSLSLSP
light: DIVMTQSPLSLPVTPGEPASISCQASESLVHSNRNTYLHWYLQKPGQSPQLLIYKVSNRFSGVPDRFSGSGSGTDFTLKISRVEAEDVGVYYCSQNTHVPPTFGQGTKVEIERTVAAPSVFIFPPSDEQLKSGTASVVCLLNNFYPREAKVQWKVDNALQSGNSQESVTEQDSKDSTYSLSSTLTLSKADYEKHKVYACEVTHQGLSSPVTKSFNRGEC
notes: Heterodimerized anti-glypican-3 IgG1, knobs-into-holes; also called Kn056/Hl055

How the values were obtained:
FcgRIIIaV [1] = molecular target: T6, FcgRIIIaV (human, UniProt P08637 17-208); experiment: SPR (Biacore); KD of H240-Kn033/H240-Hl033/L73-k0 divided by KD of the variant
T6 construct: extracellular domain; Polymorphic site after J. Clin. Invest; also called FcγRIIIa V; 3aV; not shown: His tag at the C terminus
T6 sequence (P08637 17-208 F176V limits assumed): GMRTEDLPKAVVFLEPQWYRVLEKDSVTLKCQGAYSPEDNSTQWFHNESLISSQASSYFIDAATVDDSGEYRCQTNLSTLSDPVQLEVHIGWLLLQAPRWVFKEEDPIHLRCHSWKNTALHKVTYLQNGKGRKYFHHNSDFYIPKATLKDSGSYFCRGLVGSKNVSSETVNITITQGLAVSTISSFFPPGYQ
Experimental: (§1) Next, the amino acid at position 330 was examined. The A330M alteration has been introduced into H240-Hl076 of H240-Kn125/H240-Hl076/L73-k0. […] L73-k0 was used as the common antibody L chain. Binding of the produced variants to FcgRIa, FcgRIIaR, FcgRIIaH, FcgRIIb, FcgRIIIaF, and FcgRIIIaV was measured according to the method of Reference Example 8.
(§2) Analysis of interaction between objective antibody and the FcγR was carried out using Biacore T100 (GE Healthcare), Biacore T200, Biacore A100, and Biacore 4000. HBS-EP+ (GE Healthcare) was used as the running buffer, and the measurement temperature was set to 25° C. Chips produced by immobilizing the antigen peptide by the amine coupling method to a Series S sensor Chip CM5 (GE Healthcare), chips produced by allowing preliminarily biotinylated antigen peptides to interact with and immobilize onto a Series S Sensor Chip SA (certified) (GE Healthcare), chips produced by immobilizing Protein L (ACTIGEN, BioVision) to Series S Sencor Chip CM5 (GE Healthcare), or chips produced by immobilizing Protein A/G (Thermo Scientific) to Series S Sencor Chip CM5 (GE Healthcare) were used. Antibodies of interest were captured onto these chips, and allowed to interact to each FcγR diluted with running buffer. To regenerate and repeatedly use the chip, the antibodies captured onto the chip were washed off by reacting 10 mM glycine-HCl, pH 1.5.

FcgRIIb [2] = molecular target: T1, FcgRIIb; experiment: as above
Experimental: as §1, §2

FcgRIIaR [3] = molecular target: T2, FcgRIIaR; experiment: as above
Experimental: as §1, §2

FcgRIIIaF [4] = molecular target: T7, FcgRIIIaF (human, UniProt P08637 17-208); experiment: as above
T7 construct: extracellular domain; Polymorphic site after J. Clin. Invest; also called FcγRIIIa F; 3aF; not shown: His tag at the C terminus
T7 sequence (P08637 17-208): as the sequence (P08637 17-208 F176V limits assumed) above, with V160F counted along it
Experimental: as §1, §2

FcgRIIaH [5] = molecular target: T3, FcgRIIaH; experiment: as above
Experimental: as §1, §2

FcgRIIIaV [6] = molecular target: T6, FcgRIIIaV; experiment: SPR (Biacore), antibody captured, FcgR extracellular domain as analyte
Experimental: as §1, §2

FcgRIa = molecular target: T8, FcgRIa (human, UniProt P12314 16-292); experiment: as above
T8 construct: extracellular domain; also called FcγRIa; FcγRI; not shown: His tag at the C terminus
T8 sequence (P12314 16-292): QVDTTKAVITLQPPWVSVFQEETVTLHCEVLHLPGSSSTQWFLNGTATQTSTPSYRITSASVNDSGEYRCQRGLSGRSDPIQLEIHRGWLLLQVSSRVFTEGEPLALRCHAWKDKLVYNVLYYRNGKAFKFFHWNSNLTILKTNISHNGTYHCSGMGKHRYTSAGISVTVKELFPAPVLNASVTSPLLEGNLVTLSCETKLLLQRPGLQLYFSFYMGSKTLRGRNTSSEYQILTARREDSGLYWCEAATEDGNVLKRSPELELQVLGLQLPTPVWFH
Experimental: as §1, §2

FcgRIIb [7] = molecular target: T1, FcgRIIb; experiment: as above
Experimental: as §1, §2

FcgRIIaR [8] = molecular target: T2, FcgRIIaR; experiment: as above
Experimental: as §1, §2

FcgRIIIaF [9] = molecular target: T7, FcgRIIIaF; experiment: as above
Experimental: as §1, §2

FcgRIIaH [10] = molecular target: T3, FcgRIIaH; experiment: as above
Experimental: as §1, §2

[11] = molecular target: T4, FcγRIIa R extracellular domain with …; experiment: SPR (Biacore); ratio KD for FcγRIIb / KD for FcγRIIa R
Experimental: (§3) These antibodies were assessed for the binding activity to each FcγR according to the method described in Reference Example 2.
(§4) Analysis of interaction between objective antibody and the FcγR was carried out using Biacore T100 (GE Healthcare). HBS-EP+ (GE Healthcare) was used as the running buffer, and the measurement temperature was set to 25° C. Chips produced by immobilizing the antigen peptide by the amine coupling method to a Series S Sencor Chip CM5 (GE Healthcare), or alternatively, chips produced by allowing preliminarily biotinylated antigen peptides to interact with and immobilize onto a Series S Sensor Chip SA (certified) (GE Healthcare) were used. Antibodies of interest were captured onto an antigen peptide-immobilized chip, and allowed to interact to each FcγR diluted with running buffer. To regenerate and repeatedly use the chip, the antibodies captured on the chip were washed off by reacting 10 mM glycine-HCl, pH 1.5.

[12] = molecular target: T5, FcγRIIa H extracellular domain with …; experiment: SPR (Biacore); ratio KD for FcγRIIb / KD for FcγRIIa H
Experimental: as §3, §4

| Binder | fold 3aV (FcgRIIIaV [1]) [fold] | fold 2b (FcgRIIb [2]) [fold] | fold 2aR (FcgRIIaR [3]) [fold] | fold 3aF (FcgRIIIaF [4]) [fold] | fold 2aH (FcgRIIaH [5]) [fold] | Kd (FcgRIIIaV [6]) [nM] | Kd (FcgRIa) [nM] | Kd (FcgRIIb [7]) [nM] | Kd (FcgRIIaR [8]) [nM] | Kd (FcgRIIIaF [9]) [nM] | Kd (FcgRIIaH [10]) [nM] | A/I ratio [11] | A/I ratio [12] |
| --- | --- | --- | --- | --- | --- | --- | --- | --- | --- | --- | --- | --- | --- |
| B1 | 185 | 0.8 | 1.8 | 223 | 3.7 | 0.26 | 0.066 | 3900 | 420 | 1.3 | 140 | – | – |
| B2 | 126 | 0.8 | 1.6 | 181 | 3.5 | 0.38 | 0.08 | 4400 | 450 | 1.6 | 150 | – | – |
| B3 | 80 | 0.4 | 1 | 107 | 2.5 | 0.6 | 0.073 | 8300 | 770 | 2.7 | 210 | – | – |
| B4 | 100 | 0.5 | 1.1 | 70.7 | 3.5 | 0.48 | 0.065 | 6900 | 650 | 4.1 | 150 | – | – |
| B5 | – | – | – | – | – | – | – | – | – | – | – | 16 | 8.7 |
